# Positions count from the first letter of the chain named.
# T1: human CD70 expressed on Molm-13 tumor cells (human, UniProt P32970 1-193)
# T1 sequence (looked up): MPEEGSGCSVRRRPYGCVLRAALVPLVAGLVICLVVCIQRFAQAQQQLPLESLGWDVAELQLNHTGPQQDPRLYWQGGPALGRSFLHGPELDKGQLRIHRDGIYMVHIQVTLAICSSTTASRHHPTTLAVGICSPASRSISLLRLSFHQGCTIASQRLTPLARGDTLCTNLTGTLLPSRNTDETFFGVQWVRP
# T2: biotinylated recombinant human CD70 (extracellular domain, Fc tag) (human, UniProt P32970 52-193, chemically biotinylated using 5-fold excess of Biotin)
# T2 construct: Bought from ACROBiosystems; also called bio.hCD70; Bio.CD70; not shown: C-terminal Fc Tag of the bought protein (ACROBiosystems)
# T2 sequence: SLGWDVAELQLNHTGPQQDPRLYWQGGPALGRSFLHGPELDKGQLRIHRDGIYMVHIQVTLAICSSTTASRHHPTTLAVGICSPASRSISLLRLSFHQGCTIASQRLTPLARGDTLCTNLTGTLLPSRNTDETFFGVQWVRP
# B1: DARPin® protein #27 (designed binder)
# chain: MRGSHHHHHHGSDLGKKLLQAARAGQLDEVRELLKAGADVNAKDQQGLTPLHIAANLGHLEIVEVLLKAGADVNAKDLFGLTPLHLAAFEGHLEIVEVLLKAGADVNAKDQHGATPLHLAAWVGHLEIVEVLLKAGADVNAQDKSGKTPADLAARAGHQDIAEVLQKAAGSPTPTPTTPTPTPTTPTPTPTGSDLGQKLLEAAWAGQDDEVRELLKAGADVNAKNSRGWTPLHTAAQTGHLEIFEVLLKAGADVNAKNDKRVTPLHLAAALGHLEIVEVLLKAGADVNARDSWGTTPADLAAKYGHQDIAEVLQKAA
# B2: DARPin® protein #26 (designed binder)
# chain: MRGSHHHHHHGSDLGIKLLTAAYDGQLDEVRILLKAGADVNAKDLRGQTPLHYAAGLGHLEIVEVLLKAGADVNAKDLHGWTPLHLAAWSGHLEIVEVLLKAGADVNAQDVEGVTPADLAAVQGHQDIAEVLQKAAGSPTPTPTTPTPTPTTPTPTPTGSDLGQKLLEAAWAGQDDEVRELLKAGADVNAKNSRGWTPLHTAAQTGHLEIFEVLLKAGADVNAKNDKRVTPLHLAAALGHLEIVEVLLKAGADVNARDSWGTTPADLAAKYGHQDIAEVLQKAA
# B3: DARPin® protein #3 (designed binder)
# chain: MRGSHHHHHHGSDLGQKLLHAAQVGQDDEVRILLAAGADVNAKDTRGITPLHDTAFYGHLEIVEVLLKAGADVNAKDVTGWTPLHLAAYTGHLEIVEVLLKAGADVNAQDNEGITPADLAAFHGHEDIAEVLQKAA
# B4: DARPin® protein #8 (designed binder)
# chain: MRGSHHHHHHGSDLGHKLLFAAVRGQDDEVRILLAAGADVNAKDTRGVTPLHLAASWGHLEIVEVLLKAGADVNAKDELGNTPLHLAATDGHLEIVEVLLKAGADVNAQDWVGKTPADLAAWWGHEDIAEVLQKAA
# B5: DARPin® protein #7 (designed binder)
# chain: MRGSHHHHHHGSDLGAKLLNAATVGQDDEVRILLAAGADVNAKDWSGQTPLHHAAYTGHLEIVEVLLKAGADVNAKDSWGWTPLHLAAYTGHLEIVEVLLKAGADVNAQDKEGSTPADLAAFHGHEDIAEVLQKAA
# B6: DARPin® protein #6 (designed binder)
# chain: MRGSHHHHHHGSDLGKKLLEAARAGQDDEVRILLAAGTDVNAKDARGSTPLHVAAIHGHLEIVEVLLKAGADVNAKDTWGWTPLHLAAYAGHLEIVEVLLKAGADVNAQDEEGQTPADLAAFHGHEDIAEVLQKAA
# B7: DARPin® protein #11 (designed binder)
# chain: MRGSHHHHHHGSDLGIKLLYAAYFGQDDEVRILLAAGADVNAKDWLGKTPLHLAATEGHLEIVEVLLKAGADVNAKDEWGETPLHKAAQEGHLEIVEVLLKAGADVNAQDSAGYTPADLAAQVGHEDIAEVLQKAA
# B8: DARPin® protein #12 (designed binder)
# chain: MRGSHHHHHHGSDLGKKLLQAARAGQLDEVRELLKAGADVNAKDQTGYTPLHLAARHGHLEIVEVLLKAGADVNAKDEYGWTPLHIAAFIGPLEIVEVLLKAGADVNAKDEQGATPLHLAAWQGHLEIVEVLLKAGADVNAQDKSGKTPADLAARAGHQDIAEVLQKAA
# B9: DARPin® protein #2 (designed binder)
# chain: MRGSHHHHHHGSDLGYKLLQAAYDGQLDEVRILLKAGADVNAKDSRGQTPLHYAASIGHLEIVEVLLKAGADVNAKDDHGWTPLHLAAWSGHLEIVEVLLKAGADVNAQDQEGTTPADLAAVQGHQDIAEVLQKAA
# notes: Parent of DARPin protein #24
# B10: DARPin® protein #5 (designed binder)
# chain: MRGSHHHHHHGSDLGFKLLQAALRGQLDEVRILLKAGADVNAKDQLGTTPLHLAAHYGHLEIVEVLLKAGADVNAKDVWGDTPLHLAAQHGHLEIVEVLLKAGADVNAQDRAGYTPADLAAQEGHEDIAEVLQKAA
# B11: DARPin® protein #10 (designed binder)
# chain: MRGSHHHHHHGSDLGFKLLNAAVQGQDDEVRILLAAGADVNAKDLRGTTPLHLAAQFGHLEIVEVLLKAGADVNAKDVWGATPLHLAAEHGHLEIVEVLLKAGADVNAQDNAGKTPADLAAQDGHEDIAEVLQKAA
# B12: DARPin® protein #9 (designed binder)
# chain: MRGSHHHHHHGSDLGKKLLQAARAGQLDEVRELLKAGADVNAKDQAGLTPLHIAAATGHLEIVEVLLKAGADVNAKDFSGLTPLHLAAFEGHLEIVEVLLKAGADVNAKDQHGQTPLHLAAWTGHLEIVEVLLKAGADVNAQDKSGKTPADLAARAGHQDIAEVLQKAA
# notes: Parent of DARPin protein #25
# B13: DARPin® protein #24 (designed binder)
# chain: B9 chain with Y16I, Q20T, S45L, S56G, I57L, D78L, Q111V, T114V
# notes: expressed as monovalent designed ankyrin repeat protein with N-terminal His-tag
# B14: DARPin® protein #25 (designed binder)
# chain: B12 chain with A46Q, A56N, T57L, F78L, S79F, Q114A, T123V
# notes: as for B13
# B15: DARPin® protein #1 (designed binder)
# chain: B9 chain with L27D, K35A, G124S, Q126E
# Molecular target: T1, human CD70 expressed on Molm-13 tumor …
# Assay: cell-based or functional assay
row,Binder,"EC50 of in vitro T-cell activation and tumor cell killing (Molm-13-N1 target cells), improvement over the parental binding protein"
1,B1,~31 fold
2,B2,~7 fold

# Molecular target: T2, biotinylated recombinant human CD70 …
# Assay: SPR (ProteOn XPR36), bio.CD70 immobilized on NLC chip, DARPin as analyte
# Description: The binding affinities of purified ankyrin repeat proteins on recombinant human CD70 target were analyzed using a ProteOn XPR36 instrument (BioRad) and the measurement was performed according standard procedures known to the person skilled in the art.
# Bio.CD70 was immobilized on a NLC chip and the ankyrin repeat proteins were applied as titration with a starting concentration of 100 nM and then titrated down to 1.2 nM. The signals were double referenced against the PBST-treated control lane of L1 and A6. Analyte injection was performed for 120 s followed by a dissociation for 1500 s.
row,Kd,Binder
1,3.1 nM,B3
2,1.1 nM,B4
3,5.7 nM,B5
4,43 nM,B6
5,3 nM,B7
6,28 nM,B8
7,0.45 nM,B9
8,5.8 nM,B10
9,16 nM,B11
10,27 nM,B12

# Molecular target: T2, biotinylated recombinant human CD70 …
# Assay: SPR, bio.hCD70 on neutravidin-coated GLC chip, DARPin as analyte, 1:1 Langmuir fit
# Description: Moreover, the binding affinities of two additional purified ankyrin repeat proteins on recombinant human CD70 target were measured and analyzed with a procedure as described above for DARPin proteins #2, #3, #5 to #12. Briefly, neutravidin was precoated on a GLC chip (BioRad) to a level of 5300 RU. In a second step, bio.hCD70 was immobilized to a level of 510 RU. The binding of DARPin protein #24 and DARPin protein #25 to bio.hCD70 was measured by Injecting the DARPin® molecule in a serial dilution of […]. For all described measurements, an association of 120 s and dissociation of 1200 s using a constant flow of 100 μl/min were applied. The CD70 target was regenerated with 4M MgCl₂ applied for 30s. The signals were double referenced against interspot and the running buffer (PBST: PBS pH 7.4 containing 0.005% […]) treated control lane A6. The 1:1 Langmuir model was used for the fitting.
row,Kd,Binder
1,0.0081 nM,B13
2,13 nM,B14

# Molecular target: T1, human CD70 expressed on Molm-13 tumor …
# Assay: flow cytometry (MFI) on CD70-expressing Molm-13 N1 tumor cells
# Description: Binding of binding proteins of the invention to CD70 expressed on the surface of cells was analyzed by fluorescence activated cell sorting (FACS) flow cytometry. For this purpose, CD70-expressing tumor cells (Molm-13 N1) were seeded at 100,000 cells per well in a 96 well plate. DARPin® protein #2, DARPin® protein #9, DARPin® protein #24 and DARPin® protein #25 were titrated down in 1:5 dilution ratio starting at 2000 nM. Tumor cells were resuspended with diluted DARPin proteins and incubated for 60 minutes at 4° C., The assay was performed in PBS including 2% fetal bovine serum without human serum albumin (HSA). After washing twice with Phosphate Buffer saline (PBS), DARPin® protein specific tumor cell binding was detected by adding unlabeled primary anti-rabbit DARPin® antibody (anti-rabbit 1-1-1 antibody, CePower) at 2 μg/ml. An incubation step of at least 30 minutes at 4° C. followed. Afterwards, cells were washed with PBS and a secondary goat anti-rabbit antibody labelled with Alexa Fluor 488 antibody (ThermoFisher) at 2 μg/ml was added. The same incubation conditions applied. Finally, the cells were washed twice and resuspended In Cytofix fixation buffer (BD Biosciences) for 15 min at room temperature (RT). Median fluorescence intensities (MFI) of Alexa Fluor 488 DARPin® protein labelled tumor cells were measured by Attune NXT (ThermoFisher) using FlowJo software for analyses and GraphPad Prism 8 for data plotting.
row,EC50,Binder
1,4.9 nM,B9
2,5.2 nM,B13
3,475 nM,B12
4,27 nM,B14

# Molecular target: T2, biotinylated recombinant human CD70 …
# Assay: crude extract HTRF
row,binding result,Binder
1,binds,B15
